Experimental data from patent US20240424057A1 (CASE WESTERN RESERVE UNIVERSITY, published 2024).

What was measured:
[1] = target: T1, PTPRD extracellular domain, His-tagged (Acro Biosystems, PTD-H52H9) (Homo sapiens (Human), UniProt P23468 21-1265); test: SPR (Biacore T200), PTPRD amine-coupled on CM5 chip, asprosin injected, steady-state analysis
T1 construct: only the extracellular domain stood in the assay; also called rPTPRD; rPTPRD-LBD; not shown: His tag (labelled with the His-Tag Labeling Kit RED-tris-NTA)
T1 sequence: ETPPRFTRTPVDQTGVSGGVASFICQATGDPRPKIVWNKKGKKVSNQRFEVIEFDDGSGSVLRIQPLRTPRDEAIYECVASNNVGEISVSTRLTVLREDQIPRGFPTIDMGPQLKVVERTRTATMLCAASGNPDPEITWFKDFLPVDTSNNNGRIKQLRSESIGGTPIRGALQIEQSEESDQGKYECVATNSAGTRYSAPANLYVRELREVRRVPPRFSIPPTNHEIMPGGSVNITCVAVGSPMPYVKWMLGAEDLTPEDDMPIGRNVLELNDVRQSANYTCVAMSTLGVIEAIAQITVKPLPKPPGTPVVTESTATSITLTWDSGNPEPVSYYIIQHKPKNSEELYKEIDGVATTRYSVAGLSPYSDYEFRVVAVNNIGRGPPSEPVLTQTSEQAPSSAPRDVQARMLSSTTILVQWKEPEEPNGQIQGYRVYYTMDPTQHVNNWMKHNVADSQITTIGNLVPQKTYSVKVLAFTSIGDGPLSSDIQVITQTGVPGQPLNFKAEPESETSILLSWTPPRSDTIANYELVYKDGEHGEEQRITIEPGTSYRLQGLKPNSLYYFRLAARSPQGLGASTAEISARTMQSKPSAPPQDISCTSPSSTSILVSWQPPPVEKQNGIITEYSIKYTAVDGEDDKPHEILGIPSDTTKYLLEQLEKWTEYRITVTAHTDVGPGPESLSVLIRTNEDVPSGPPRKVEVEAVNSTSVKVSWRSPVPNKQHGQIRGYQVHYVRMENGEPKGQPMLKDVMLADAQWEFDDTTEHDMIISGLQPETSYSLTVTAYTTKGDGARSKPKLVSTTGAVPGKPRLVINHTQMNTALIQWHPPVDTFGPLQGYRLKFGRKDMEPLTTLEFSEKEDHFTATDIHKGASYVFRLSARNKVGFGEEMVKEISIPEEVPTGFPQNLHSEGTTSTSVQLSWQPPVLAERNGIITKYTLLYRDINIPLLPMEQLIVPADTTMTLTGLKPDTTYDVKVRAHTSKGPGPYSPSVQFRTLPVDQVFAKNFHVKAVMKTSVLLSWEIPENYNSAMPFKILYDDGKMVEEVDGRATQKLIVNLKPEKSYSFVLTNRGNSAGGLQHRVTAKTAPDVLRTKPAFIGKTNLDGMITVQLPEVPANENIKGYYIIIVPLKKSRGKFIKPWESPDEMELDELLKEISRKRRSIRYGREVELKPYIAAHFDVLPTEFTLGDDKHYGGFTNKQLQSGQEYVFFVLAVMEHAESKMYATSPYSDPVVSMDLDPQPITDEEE
Method: Surface plasmon resonance (SPR) studies were performed using Biacore T200 with PTPRD (Acro Biosystems, PTD-H52H9) covalently immobilized on an S series CM5 sensor chip via amine coupling. To avoid protein aggregation, […] used in SPR experiments were purified by gel filtration in a buffer containing 25 mM Tris-HCl (pH 8.0), 100 mM NaCl and 5 mM DTT, stored at 4° C., and used within 48 hr with minimum concentration process. Asprosin was injected in a series of concentrations from […] to 7.8125 nM was injected at 30 μl/min over the sensor chip at room temperature. Sensorgram traces subtracted with the reference and zero-concentration traces were analyzed using BIA Evaluation software (GE Healthcare Bio-Sciences). Nonlinear steady-state analysis was performed to compute Kd.

[2] = target: T2, recombinant PTPRD-his protein, extracellular domain (Creative BioMart, PTPRD-36H) (Homo sapiens (Human), UniProt P23468 21-1265, biotinylated with EZ-Link-Sulfo-NHS-Biotin in the BLI assay); test: bio-layer interferometry (Octet RED96), biotin-labelled PTPRD on super streptavidin biosensors, asprosin 1.23-900 nM in solution, 1:1 global fit
T2 construct: only the extracellular domain stood in the assay; Used in the co-immunoprecipitation and in BLI; also called rPTPRD-his; PTPRD-6his; not shown: 6xHis tag
T2 sequence: T1 sequence
Method: (§1) Binding affinity of asprosin to PTPRD was measured on Pall ForteBio's Octet RED96 system. The PTPRD protein (Creative BioMart, PTPRD-36H) was labeled with Biotin using EZ-Link-Sulfo-NHS-Biotin (ThermoFisher Scientific, 21217) and desalted by Zeba™ Spin Desalting Columns. The biotin-labeled PTPRD (20 μg/ml) was loaded on the super streptavidin (SSA) biosensors for 300 seconds. Following 20 seconds of baseline in kinetics buffer, the loaded biosensors were dipped into a series of 3-fold diluted human asprosin (1.23-900 nM) for 300 seconds to record association kinetics and then dipped into a kinetic buffer for 600 seconds to record dissociation kinetics. Kinetic buffer without asprosin was set to correct the background. For fitting of KD value, ForteBio's data analysis software was used to fit the curve by a 1:1 binding model and the global fitting method was applied.

[3] = target: T2, recombinant PTPRD-his protein, …; test: bio-layer interferometry (Octet RED96), biotinylated PTPRD on SSA biosensors, asprosin 1.23-900 nM, 1:1 global fit
Method: as §1

[4] = target: T1, PTPRD extracellular domain, His-tagged …; test: microscale thermophoresis, fluorescently labelled PTPRD, unlabelled asprosin titrated
Method: The microscale thermophoresis (MST) assay was performed with the Monolith NT.115 from NanoTemper Technologies. PTPRD (Acro Biosystems, PTD-H52H9) was fluorescently labeled according to the manufacturer's protocol (His-Tag Labeling Kit RED-tris-NTA, NanoTemper). A solution of unlabeled asprosin was serially diluted according to the manufacturer's protocol. After labeled PTPRD and unlabeled asprosin were mixed and incubated at room temperature for 30 minutes, samples were loaded into glass capillaries (Monolith NT.115 Capillaries, NanoTemper). Measurements were carried out according to manufacturer's protocol: 40% power and 40% MST power. Assays were repeated three times and KD's were calculated using the NanoTemper analysis software.

B1: recombinant human asprosin (ligand, UniProt P35555 2732-2871, looked up)
chain: STNETDASNIEDQSETEANVSLASWDVEKTAIFAFNISHVSNKVRILELLPALTTLTNHNRYLIESGNEDGFFKINQKEGISYLHFTKKKPVAGTYSLQISSTPLYKKKELNQLEDKYDKDYLSGELGDNLKMKIQVLLH
notes: domain: cleaved asprosin; Unlabelled analyte in SPR, MST and BLI, and the recombinant asprosin used in IP/MS, ELISA and slice electrophysiology; Only the BLI and ELISA methods call it human; also called rAsprosin; recombinant asprosin
[1]
  Kd: 36.8 nM
[2]
  koff: 0.000377 s⁻¹
  kon: 6610 M⁻¹ s⁻¹
[3]
  Kd: 57 nM
[4]
  Kd: 4.2 nM
